Test results from publication PMC7948500, “Comparative interactomes of HSF1 in stress and disease reveal a role for CTCF in HSF1-mediated gene regulation” (The Journal of Biological Chemistry, 2020).

Target: T1, His6-tagged CTCF (human, UniProt P49711 1-727)
T1 construct: CTCF, human, codon-optimized for bacterial expression, in pET-15b; printed both as CTCF-His and His-CTCF; pET-15b usually adds an N-terminal His tag; also called His-CTCF; CTCF-His; source: E. coli BL21 (DE3), purified (Ni-NTA agarose)
T1 sequence (looked up): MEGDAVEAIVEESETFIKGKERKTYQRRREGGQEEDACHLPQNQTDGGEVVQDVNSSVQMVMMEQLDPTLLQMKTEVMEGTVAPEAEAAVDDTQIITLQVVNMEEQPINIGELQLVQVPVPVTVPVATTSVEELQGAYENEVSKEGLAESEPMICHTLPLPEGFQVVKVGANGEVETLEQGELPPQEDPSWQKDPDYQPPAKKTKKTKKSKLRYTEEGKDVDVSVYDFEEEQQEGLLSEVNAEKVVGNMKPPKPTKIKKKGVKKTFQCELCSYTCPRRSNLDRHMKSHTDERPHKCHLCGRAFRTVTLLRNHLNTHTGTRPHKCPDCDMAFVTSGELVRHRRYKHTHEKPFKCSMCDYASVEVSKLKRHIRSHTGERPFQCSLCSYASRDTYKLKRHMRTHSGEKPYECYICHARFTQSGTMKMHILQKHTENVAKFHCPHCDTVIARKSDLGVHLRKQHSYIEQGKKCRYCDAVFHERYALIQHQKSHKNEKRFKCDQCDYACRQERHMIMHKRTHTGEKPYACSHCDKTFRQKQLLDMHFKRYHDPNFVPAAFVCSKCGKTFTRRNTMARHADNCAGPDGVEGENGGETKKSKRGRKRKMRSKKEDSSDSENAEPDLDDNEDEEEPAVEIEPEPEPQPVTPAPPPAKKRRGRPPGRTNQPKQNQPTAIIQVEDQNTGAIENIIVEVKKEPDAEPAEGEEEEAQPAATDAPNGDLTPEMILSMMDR
Experiment: pull-down; in vitro STREP pull-down: 5 nM purified His-CTCF alone or with STREP-HSF1 in 1 ml Buffer NP (50 mM NaH2PO4, 300 mM NaCl, pH 8.0), 1 h at 4 °C, MagStrep type 3 XT resin, five washes, eluted with 25 mM desthiobiotin; immunoblot
Conditions: both partners purified

B1: STREP-HSF1 (natural protein, human, UniProt Q00613 1-529, looked up)
chain: MDLPVGPGAAGPSNVPAFLTKLWTLVSDPDTDALICWSPSGNSFHVFDQGQFAKEVLPKYFKHNNMASFVRQLNMYGFRKVVHIEQGGLVKPERDDTEFQHPCFLRGQEQLLENIKRKVTSVSTLKSEDIKIRQDSVTKLLTDVQLMKGKQECMDSKLLAMKHENEALWREVASLRQKHAQQQKVVNKLIQFLISLVQSNRILGVKRKIPLMLNDSGSAHSMPKYSRQFSLEHVHGSGPYSAPSPAYSSSSLYAPDAVASSGPIISDITELAPASPMASPGGSIDERPLSSSPLVRVKEEPPSPPQSPRVEEASPGRPSSVDTLLSPTALIDSILRESEPAPASVTALTDARGHTDTEGRPPSPPPTSTPEKCLSVACLDKNELSDHLDAMDSNLDNLQTMLSSHGFSVDTSALLDLFSPSVTVPDMSLPDLDSSLASIQELLSPQEPPRPPEAENSSPDSGKQLVHYTAQPLFLLDPGSVDTGSNDLPVLFELGEGSYFSEGDGFAEDPTISLLTGSEPPKAKDPTVS
notes: HSF1, human, codon-optimized for bacterial expression; also called STREP-tagged HSF1; source: E. coli BL21 (DE3), purified (StrepTrap column)
Does B1 bind?
Result: binds
